The test system of the data set is Escherichia coli TOP10. The experiment in a line: shrunken log2 fold change of peptide-encoding DNA abundance (4.5 h post-induction vs induction); higher = less antimicrobial activity (less host growth inhibition). The note with it: time post-induction: 4.5 h; library: site-saturation at positions 5, 18, 19, 20.
Regarding RRIRERPPRLPRPRPRPLSNPRP, the “shrunken log2 fold change” value amounted to 0.0169.
In the case of RRIRCRPPRLPRPRPRPQVKPRP, the “shrunken log2 fold change” value is 0.0486.
With RRIRVRPPRLPRPRPRPPTSPRP, the “shrunken log2 fold change” value is 0.101.
Next, RRIRGRPPRLPRPRPRPAERPRP: 0.388; RRIRVRPPRLPRPRPRPGAQPRP: 0.00624.
In the case of RRIRHRPPRLPRPRPRPFVQPRP, the “shrunken log2 fold change” value was -0.14.
As for RRIRMRPPRLPRPRPRPVQDPRP, the “shrunken log2 fold change” value amounted to 0.32.
RRIRLRPPRLPRPRPRPWDPPRP: the “shrunken log2 fold change” value was -0.125.
For RRIRNRPPRLPRPRPRPENDPRP the value was 0.0164.
On to RRIRKRPPRLPRPRPRPDAIPRP, for which the “shrunken log2 fold change” value is 0.889.
As to RRIRDRPPRLPRPRPRPQTSPRP, the “shrunken log2 fold change” value is 0.117.
RRIRFRPPRLPRPRPRPEDVPRP: the “shrunken log2 fold change” value was -0.0294.
On to RRIRHRPPRLPRPRPRPSSAPRP, for which the “shrunken log2 fold change” value is -0.0336.
As to RRIRPRPPRLPRPRPRPSDTPRP, the “shrunken log2 fold change” value was -0.29.
In the case of RRIRFRPPRLPRPRPRPPIQPRP, the “shrunken log2 fold change” value came out at 0.0333.
Turning to RRIRQRPPRLPRPRPRPHILPRP, the “shrunken log2 fold change” value is -0.361.
RRIRVRPPRLPRPRPRPCDQPRP: the “shrunken log2 fold change” value is -0.0149.
Turning to RRIRSRPPRLPRPRPRPLHLPRP, the “shrunken log2 fold change” value was -0.0832.
Take RRIRNRPPRLPRPRPRPAWHPRP: the “shrunken log2 fold change” value was 0.259.
Consider RRIRLRPPRLPRPRPRPPFEPRP, for which the “shrunken log2 fold change” value stood at 0.182.
Turning to RRIRDRPPRLPRPRPRPGVSPRP, the “shrunken log2 fold change” value came out at 0.158.
As for RRIRGRPPRLPRPRPRPTCYPRP, the “shrunken log2 fold change” value was 0.34.
For RRIRARPPRLPRPRPRPEHIPRP the value was -0.185.
Turning to RRIRRRPPRLPRPRPRPGIGPRP, the “shrunken log2 fold change” value was -0.00887.
Take RRIRLRPPRLPRPRPRPQQKPRP: the “shrunken log2 fold change” value was -0.167.
On to RRIRYRPPRLPRPRPRPPDNPRP, for which the “shrunken log2 fold change” value is -0.185.
As for RRIRLRPPRLPRPRPRPCSKPRP, the “shrunken log2 fold change” value is -0.0788.
With RRIRLRPPRLPRPRPRPGWFPRP, the “shrunken log2 fold change” value was 0.147.
RRIRARPPRLPRPRPRPFCHPRP: the “shrunken log2 fold change” value is -0.083.
With RRIRARPPRLPRPRPRPKDAPRP, the “shrunken log2 fold change” value is 0.347.
As for RRIRVRPPRLPRPRPRPKCKPRP, the “shrunken log2 fold change” value was -0.191.
Turning to RRIRFRPPRLPRPRPRPRPFPRP, the “shrunken log2 fold change” value was found to be 0.401.
In the case of RRIRCRPPRLPRPRPRPTMNPRP, the “shrunken log2 fold change” value was -0.421.
For RRIRYRPPRLPRPRPRPSKQPRP the value was -0.137; for RRIRVRPPRLPRPRPRPRVQPRP, 0.328.
Consider RRIRPRPPRLPRPRPRPYLCPRP, for which the “shrunken log2 fold change” value was -0.504.
Consider RRIRNRPPRLPRPRPRPWYIPRP, for which the “shrunken log2 fold change” value was determined as 0.00246.
Regarding RRIRVRPPRLPRPRPRPLKQPRP, the “shrunken log2 fold change” value is -0.0521.
For RRIRERPPRLPRPRPRPLMHPRP the value was -0.231.
RRIRWRPPRLPRPRPRPDKWPRP: the “shrunken log2 fold change” value was -0.161.
Consider RRIRHRPPRLPRPRPRPDGTPRP, for which the “shrunken log2 fold change” value is -0.0362.
Regarding RRIRKRPPRLPRPRPRPLNEPRP, the “shrunken log2 fold change” value worked out at 0.0114.
For RRIRNRPPRLPRPRPRPTEAPRP, the “shrunken log2 fold change” value amounted to 0.21.
For RRIRYRPPRLPRPRPRPEWHPRP the value was -0.186; for RRIRSRPPRLPRPRPRPFSCPRP, -0.0153.
On to RRIRVRPPRLPRPRPRPPMKPRP, for which the “shrunken log2 fold change” value was -0.117.
As to RRIRVRPPRLPRPRPRPKIYPRP, the “shrunken log2 fold change” value is -0.309.
For RRIRCRPPRLPRPRPRPRITPRP, the “shrunken log2 fold change” value was -0.212.
Regarding RRIRKRPPRLPRPRPRPYPIPRP, the “shrunken log2 fold change” value was determined as 0.11.
Take RRIRNRPPRLPRPRPRPCTRPRP: the “shrunken log2 fold change” value was -0.184.
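Further: peptides expressed intracellularly from a pBAD plasmid library in pooled LB shake-flask culture, induced with 0.3% L-arabinose, DNA abundance read by NGS, three biological replicates, DESeq2 with apeglm shrinkage.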
